Measured values reported in the supplement of paper PMC5998384.

What was measured:
HeLa Kyoto [1] = experiment: solubility in G1/S (NP-40 vs SDS abundance) (log2 ratio); higher = more soluble; conditions: cell cycle stage: G1/S
HeLa Kyoto [2] = experiment: melting temperature (median over replicates), in situ; higher = more thermally stable
HeLa Kyoto [3] = experiment: solubility change mitosis vs G1/S (difference of NP-40 vs SDS log2 ratios) (log2 ratio difference); higher = more soluble in mitosis
HeLa Kyoto [4] = experiment: thermal stability score vs G1/S (z-score of summed log2 fold changes over temperatures); higher = more thermally stable than in G1/S
[5] = cell cycle stage: early G1 (4.5 h after nocodazole release)
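For melting temperature (median over replicates), in situ in this document: HeLa Kyoto cells synchronized by double thymidine or nocodazole block, proteins quantified by TMT10plex mass spectrometry, three independent biological replicates.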
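For solubility change mitosis vs G1/S (difference of NP-40 vs SDS log2 ratios) in this document: synchronized HeLa Kyoto cells (double thymidine block for G1/S, nocodazole release for mitosis), protein amounts in NP-40 versus SDS lysates quantified by mass spectrometry, three biological replicates.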
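For solubility in G1/S (NP-40 vs SDS abundance) in this document: HeLa Kyoto cells arrested at G1/S by double thymidine block, proteins quantified by TMT10plex mass spectrometry in mild NP-40 versus SDS extracts, three biological replicates.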
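For thermal stability score vs G1/S (z-score of summed log2 fold changes over temperatures) in this document: synchronized HeLa Kyoto cells, proteins quantified by TMT10plex mass spectrometry, three biological replicates, mitosis taken 0.5 h after nocodazole release, G1/S directly after double thymidine block.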

CTDSPL2, sequence (chain, as listed by the source): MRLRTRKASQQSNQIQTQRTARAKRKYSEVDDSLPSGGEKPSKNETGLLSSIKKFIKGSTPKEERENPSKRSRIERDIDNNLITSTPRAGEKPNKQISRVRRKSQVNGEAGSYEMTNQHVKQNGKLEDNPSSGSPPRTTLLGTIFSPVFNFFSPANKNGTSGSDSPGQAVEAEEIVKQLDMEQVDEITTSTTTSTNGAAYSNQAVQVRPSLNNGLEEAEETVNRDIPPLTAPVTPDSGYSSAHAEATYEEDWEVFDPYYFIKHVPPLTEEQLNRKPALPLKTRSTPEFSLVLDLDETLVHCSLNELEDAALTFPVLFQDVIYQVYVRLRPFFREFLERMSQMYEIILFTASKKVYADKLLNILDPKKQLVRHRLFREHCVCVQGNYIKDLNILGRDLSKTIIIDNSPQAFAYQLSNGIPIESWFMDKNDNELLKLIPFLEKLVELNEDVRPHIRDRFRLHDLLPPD
IDH3B, sequence (chain, as listed by the source): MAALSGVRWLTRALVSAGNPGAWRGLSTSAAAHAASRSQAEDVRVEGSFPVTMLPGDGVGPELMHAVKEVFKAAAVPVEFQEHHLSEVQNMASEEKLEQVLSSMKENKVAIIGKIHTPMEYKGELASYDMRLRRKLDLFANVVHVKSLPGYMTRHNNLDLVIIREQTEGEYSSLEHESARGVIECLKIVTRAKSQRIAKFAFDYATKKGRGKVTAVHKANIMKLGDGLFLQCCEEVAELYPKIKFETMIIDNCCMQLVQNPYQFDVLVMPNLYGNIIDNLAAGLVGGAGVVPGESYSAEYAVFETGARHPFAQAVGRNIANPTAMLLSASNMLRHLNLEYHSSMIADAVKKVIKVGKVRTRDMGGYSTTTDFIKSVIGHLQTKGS
HSPA9, sequence (chain, as listed by the source): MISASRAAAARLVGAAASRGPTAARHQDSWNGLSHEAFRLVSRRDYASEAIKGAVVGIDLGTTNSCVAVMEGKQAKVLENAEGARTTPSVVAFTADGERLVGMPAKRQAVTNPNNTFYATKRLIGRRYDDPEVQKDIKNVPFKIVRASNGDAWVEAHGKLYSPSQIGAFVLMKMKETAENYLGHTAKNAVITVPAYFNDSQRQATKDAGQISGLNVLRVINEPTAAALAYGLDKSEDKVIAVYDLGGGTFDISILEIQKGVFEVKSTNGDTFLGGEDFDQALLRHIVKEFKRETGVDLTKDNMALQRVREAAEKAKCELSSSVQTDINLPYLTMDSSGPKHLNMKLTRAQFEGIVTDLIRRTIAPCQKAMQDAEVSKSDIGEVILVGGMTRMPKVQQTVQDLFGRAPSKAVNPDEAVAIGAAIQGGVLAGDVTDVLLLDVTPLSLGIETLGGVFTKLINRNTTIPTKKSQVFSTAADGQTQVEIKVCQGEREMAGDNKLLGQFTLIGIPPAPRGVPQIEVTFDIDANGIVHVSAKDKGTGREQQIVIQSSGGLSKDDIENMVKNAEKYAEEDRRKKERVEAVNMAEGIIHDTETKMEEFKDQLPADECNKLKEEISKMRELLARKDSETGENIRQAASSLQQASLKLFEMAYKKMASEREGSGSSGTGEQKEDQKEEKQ
FXR2, sequence (chain, as listed by the source): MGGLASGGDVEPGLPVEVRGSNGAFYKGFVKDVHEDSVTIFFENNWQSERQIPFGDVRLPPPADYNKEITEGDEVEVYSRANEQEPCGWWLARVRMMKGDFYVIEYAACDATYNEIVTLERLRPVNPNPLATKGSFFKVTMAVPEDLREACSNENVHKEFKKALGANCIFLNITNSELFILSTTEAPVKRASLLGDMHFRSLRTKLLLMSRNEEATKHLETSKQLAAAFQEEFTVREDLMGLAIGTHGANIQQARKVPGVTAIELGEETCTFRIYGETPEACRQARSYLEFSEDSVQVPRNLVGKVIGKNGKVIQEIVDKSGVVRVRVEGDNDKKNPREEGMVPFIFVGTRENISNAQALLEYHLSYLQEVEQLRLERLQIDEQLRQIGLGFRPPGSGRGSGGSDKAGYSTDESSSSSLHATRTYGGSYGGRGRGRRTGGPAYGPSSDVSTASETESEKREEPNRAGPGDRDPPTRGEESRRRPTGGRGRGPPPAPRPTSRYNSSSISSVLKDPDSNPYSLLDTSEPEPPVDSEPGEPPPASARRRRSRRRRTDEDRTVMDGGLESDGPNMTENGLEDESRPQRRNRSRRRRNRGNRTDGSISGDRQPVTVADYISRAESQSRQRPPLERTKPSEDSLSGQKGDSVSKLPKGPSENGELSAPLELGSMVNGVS
GALNT2, sequence (chain, as listed by the source): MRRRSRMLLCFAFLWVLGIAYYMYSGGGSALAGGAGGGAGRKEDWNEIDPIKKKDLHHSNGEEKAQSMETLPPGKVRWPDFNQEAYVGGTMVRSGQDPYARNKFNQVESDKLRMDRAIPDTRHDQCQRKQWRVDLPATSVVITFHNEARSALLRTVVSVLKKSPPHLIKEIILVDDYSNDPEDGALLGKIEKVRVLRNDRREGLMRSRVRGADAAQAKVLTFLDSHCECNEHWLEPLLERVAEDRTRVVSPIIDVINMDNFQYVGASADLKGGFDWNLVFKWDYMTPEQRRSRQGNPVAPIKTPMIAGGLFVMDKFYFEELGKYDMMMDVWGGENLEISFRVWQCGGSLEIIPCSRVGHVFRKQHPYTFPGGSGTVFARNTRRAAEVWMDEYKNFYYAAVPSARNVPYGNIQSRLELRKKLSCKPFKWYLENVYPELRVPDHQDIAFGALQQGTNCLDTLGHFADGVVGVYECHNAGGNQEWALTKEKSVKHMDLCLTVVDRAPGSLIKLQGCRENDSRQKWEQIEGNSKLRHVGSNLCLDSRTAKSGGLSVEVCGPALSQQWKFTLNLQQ
HACL1, sequence (chain, as listed by the source): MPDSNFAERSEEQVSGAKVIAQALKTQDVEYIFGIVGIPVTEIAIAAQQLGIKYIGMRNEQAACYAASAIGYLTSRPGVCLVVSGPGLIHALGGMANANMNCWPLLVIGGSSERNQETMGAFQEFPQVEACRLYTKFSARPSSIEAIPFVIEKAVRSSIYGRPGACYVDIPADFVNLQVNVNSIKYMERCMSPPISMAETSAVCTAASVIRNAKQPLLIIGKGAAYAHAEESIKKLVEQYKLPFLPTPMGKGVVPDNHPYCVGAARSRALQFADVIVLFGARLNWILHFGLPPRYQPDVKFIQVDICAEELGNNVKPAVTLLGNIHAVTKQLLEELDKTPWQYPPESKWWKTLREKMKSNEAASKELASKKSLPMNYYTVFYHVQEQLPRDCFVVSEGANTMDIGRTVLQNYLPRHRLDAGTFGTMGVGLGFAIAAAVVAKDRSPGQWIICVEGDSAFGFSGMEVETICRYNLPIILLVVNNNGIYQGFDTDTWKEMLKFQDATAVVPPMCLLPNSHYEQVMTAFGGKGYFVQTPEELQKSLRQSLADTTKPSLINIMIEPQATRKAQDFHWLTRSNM
EZH2, sequence (chain, as listed by the source): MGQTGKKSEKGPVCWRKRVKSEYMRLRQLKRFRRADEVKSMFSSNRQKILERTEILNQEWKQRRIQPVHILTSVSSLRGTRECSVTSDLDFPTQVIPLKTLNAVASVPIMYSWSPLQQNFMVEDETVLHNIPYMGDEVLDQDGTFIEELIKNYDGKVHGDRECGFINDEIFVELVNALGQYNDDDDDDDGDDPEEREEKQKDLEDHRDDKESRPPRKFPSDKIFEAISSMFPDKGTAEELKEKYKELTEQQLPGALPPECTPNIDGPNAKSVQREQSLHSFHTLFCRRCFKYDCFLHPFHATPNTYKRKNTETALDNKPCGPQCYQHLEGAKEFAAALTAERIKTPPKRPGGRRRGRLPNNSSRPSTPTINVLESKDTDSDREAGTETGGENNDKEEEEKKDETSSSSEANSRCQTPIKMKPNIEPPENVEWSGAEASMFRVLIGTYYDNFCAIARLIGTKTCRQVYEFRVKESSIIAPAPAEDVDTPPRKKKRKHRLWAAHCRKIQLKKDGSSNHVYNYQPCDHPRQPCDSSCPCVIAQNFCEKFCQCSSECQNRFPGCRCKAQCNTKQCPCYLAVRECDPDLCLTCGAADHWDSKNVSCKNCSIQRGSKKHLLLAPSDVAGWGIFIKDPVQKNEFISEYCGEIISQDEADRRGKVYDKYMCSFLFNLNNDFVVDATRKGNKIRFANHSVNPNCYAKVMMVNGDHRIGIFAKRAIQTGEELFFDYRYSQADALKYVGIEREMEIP
ITCH, sequence (chain, as listed by the source): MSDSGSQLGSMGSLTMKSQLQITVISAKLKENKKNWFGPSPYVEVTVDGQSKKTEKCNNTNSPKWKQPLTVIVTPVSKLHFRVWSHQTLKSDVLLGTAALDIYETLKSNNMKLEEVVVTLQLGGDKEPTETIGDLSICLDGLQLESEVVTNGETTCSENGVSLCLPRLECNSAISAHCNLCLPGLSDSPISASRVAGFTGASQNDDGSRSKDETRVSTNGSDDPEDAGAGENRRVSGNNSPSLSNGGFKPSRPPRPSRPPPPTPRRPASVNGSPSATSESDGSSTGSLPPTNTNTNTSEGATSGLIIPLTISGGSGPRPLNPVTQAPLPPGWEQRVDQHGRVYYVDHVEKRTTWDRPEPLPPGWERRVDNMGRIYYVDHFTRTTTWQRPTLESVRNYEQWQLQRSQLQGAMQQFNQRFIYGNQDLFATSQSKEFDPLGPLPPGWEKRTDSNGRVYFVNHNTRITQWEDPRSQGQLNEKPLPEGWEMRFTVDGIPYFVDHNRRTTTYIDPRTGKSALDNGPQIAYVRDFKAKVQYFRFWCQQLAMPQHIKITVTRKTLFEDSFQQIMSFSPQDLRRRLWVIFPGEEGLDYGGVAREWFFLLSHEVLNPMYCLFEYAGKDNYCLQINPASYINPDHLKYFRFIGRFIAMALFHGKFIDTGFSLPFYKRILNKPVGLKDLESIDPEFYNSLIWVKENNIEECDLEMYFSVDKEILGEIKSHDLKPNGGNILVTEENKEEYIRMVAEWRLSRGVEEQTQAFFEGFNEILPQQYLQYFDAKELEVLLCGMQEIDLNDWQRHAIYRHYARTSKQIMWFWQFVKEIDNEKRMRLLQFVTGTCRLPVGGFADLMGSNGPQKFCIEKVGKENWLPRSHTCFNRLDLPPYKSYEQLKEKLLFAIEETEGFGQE

Row | Substance | solubility in G1/S (log2) (HeLa Kyoto [1]) | melting temperature (HeLa Kyoto [2]; cell cycle stage: G1/S) [°C] | melting temperature (HeLa Kyoto [2]; cell cycle stage: mitosis) [°C] | solubility change mitosis (log2) (HeLa Kyoto [3]) | thermal stability score (HeLa Kyoto [4]; [5]) | thermal stability score (HeLa Kyoto [4]; cell cycle stage: mitosis)
1 | CKB | 0.651 | 51 | 51.3 | -0.115 | 1.63 | 2
2 | CLIC4 | 0.409 | 52.1 | 52.5 | -0.146 | -0.344 | 0.497
3 | COL12A1 | -0.1 | 53.8 | 54.9 | -0.124 | 4.88 | 5.9
4 | CPS1 | 0.0669 | 53.1 | 53.2 | -0.13 | -0.953 | -3.38
5 | CTDSPL2 | -0.599 | 48.4 | 48.7 | 0.46 | 2.66 | 4.58
6 | CTSD | 0.272 | 56.2 | 57 | -0.113 | 1.02 | -1.76
7 | CUL7 | 0.0417 |  | 49.1 | -0.279 | 0.604 | 0.125
8 | CXORF56 | -0.0564 | 50.6 | 51.3 | 0.1 | -1.87 | -1.28
9 | DNAJA1 | -0.016 | 51.8 | 52.1 | 0.000386 | -1.37 | -1.92
10 | DNAJB4 | 0.0979 | 49.3 | 49.5 | 0.0771 | 1.4 | 0.454
11 | DNAJC21 | -0.451 | 50.7 | 49.9 | 0.168 | 2.06 | 1.36
12 | DNMBP | 0.00933 | 48.8 | 49 | -0.133 | -0.0907 | 0.88
13 | DOCK1 | -0.195 | 50.7 | 50 | -0.0711 | 0.388 | 0.518
14 | DST | -0.363 | 49.1 | 49.2 | 0.045 | 0.147 | 1.16
15 | EIF2AK4 | -0.218 | 50.8 | 50.3 | -0.0694 | 0.686 | 0.568
16 | EP300 | -0.0947 | 50.8 | 51.6 | -0.0909 | -0.227 | 1.93
17 | EZH2 | -0.621 | 49 | 49.9 | 0.156 | 2.26 | 4
18 | FAM91A1 | -0.0537 | 51.9 | 51.3 | -0.101 | -0.197 | -1.55
19 | FLAD1 | 0.272 | 51.8 | 51.6 | -0.111 | -0.00796 | -0.288
20 | FLNB | -0.0724 | 51.8 | 51.3 | -0.0508 | -0.118 | 0.998
21 | FXR2 | -1.13 | 52.6 | 51.7 | 0.38 | -1.1 | -0.108
22 | GALK1 | 0.313 | 52.6 | 52.7 | -0.117 | 3.18 | 1.65
23 | GALNT2 | -0.0412 | 51.6 | 52 | -0.0991 | 9.37 | 17.4
24 | GEMIN5 | -0.199 | 49.4 | 49.7 | -0.155 | -0.261 | 1.19

Row | Substance | solubility in G1/S (log2) (HeLa Kyoto [1]) | melting temperature (HeLa Kyoto [2]; cell cycle stage: G1/S) [°C] | melting temperature (HeLa Kyoto [2]; cell cycle stage: mitosis) [°C] | solubility change mitosis (log2) (HeLa Kyoto [3]) | thermal stability score (HeLa Kyoto [4]; [5]) | thermal stability score (HeLa Kyoto [4]; cell cycle stage: mitosis)
25 | GFM1 | 0.0415 | 50.3 | 50.5 | -0.108 | -0.899 | 0.337
26 | HACL1 | -0.0836 | 56.6 | 56.1 | -0.168 | -1.09 | -0.922
27 | HEATR1 | -1.01 | 48.4 | 49.2 | 0.265 | 1.16 | 2.97
28 | HELZ | 0.00285 | 52.3 | 52.3 | -0.131 | -0.338 | -0.16
29 | HERC1 | -0.169 | 51.7 | 51.3 | -0.126 | -0.377 | -0.404
30 | HNRNPK | 0.317 | 49.7 | 49.9 | 0.0123 | -0.521 | 2.21
31 | HSPA2 | 0.111 | 53.2 | 52.4 | -0.0491 | 0.118 | 1.01
32 | HSPA9 | 0.447 | 53.1 | 52.8 | -0.0046 | 2.31 | -0.387
33 | HTT | -0.145 | 50.6 | 50.7 | -0.0881 | -0.714 | -1.14
34 | IDH3B | 0.298 | 54.2 | 53.5 | -0.00994 | -1.39 | -2
35 | IMPDH1 | 0.0289 | 51.1 | 51.6 | -0.176 | 5.12 | 3.19
36 | ITCH | -0.468 | 49.8 | 51.6 | 0.0566 | 0.594 | 0.999
37 | ITPR1 | -0.349 | 49.8 | 50.2 | -0.0166 | 0.726 | 1.96
38 | ITPR2 | -0.52 | 49.6 | 50.4 | 0.131 | -0.335 | 0.355
39 | ITSN2 | -0.159 | 51.9 | 49.1 | -0.0144 | 0.178 | 0.129
40 | KIAA0930 | -0.0317 | 52.6 | 52.3 | -0.03 | 0.34 | 0.505
41 | KIDINS220 | -0.21 | 52.9 | 52 | 0.00102 | -0.795 | -1.61
42 | LAMB1 | 0.0818 | 53.6 | 54.2 | -0.0866 | 3.04 | 4.45
43 | LDLR | -0.34 | 56.6 | 56.6 | -0.00467 | -1.81 | -1.47
44 | LMO7 | -1.14 | 51 | 51.1 | 0.694 | 3.45 | 3.47
45 | MAAAAAAAAAAGAAGGRGSGPGRRRHLVPGAGGEAGEGAPGGAGDYGNGLESEELEPEELLLEPEPEPEPEEEPPRPRAPPGAPGPGPGSGAPGSQEEEEEPGLVEGDPGDGAIEDPELEAIKARVREMEEEAEKLKELQNEVEKQMNMSPPPGNAGPVIMSIEEKMEADARSIYVGNVDYGATAEELEAHFHGCGSVNRVTILCDKFSGHPKGFAYIEFSDKESVRTSLALDESLFRGRQIKVIPKRTNRPGISTTDRGFPRARYRARTTNYNSSRSRFYSGFNSRPRGRVYRGRARATSWYSPY [PABPN1] | 0.016 | 48.9 | 50.5 | 0.441 | 1.6 | 2.2
46 | MAAAAAAGPSPGSGPGDSPEGPEGEAPERRRKAHGMLKLYYGLSEGEAAGRPAGPDPLDPTDLNGAHFDPEVYLDKLRRECPLAQLMDSETDMVRQIRALDSDMQTLVYENYNKFISATDTIRKMKNDFRKMEDEMDRLATNMAVITDFSARISATLQDRHERITKLAGVHALLRKLQFLFELPSRLTKCVELGAYGQAVRYQGRAQAVLQQYQHLPSFRAIQDDCQVITARLAQQLRQRFREGGSGAPEQAECVELLLALGEPAEELCEEFLAHARGRLEKELRNLEAELGPSPPAPDVLEFTDHGGSGFVGGLCQVAAAYQELFAAQGPAGAEKLAAFARQLGSRYFALVERRLAQEQGGGDNSLLVRALDRFHRRLRAPGALLAAAGLADAATEIVERVARERLGHHLQGLRAAFLGCLTDVRQALAAPRVAGKEGPGLAELLANVASSILSHIKASLAAVHLFTAKEVSFSNKPYFRGEFCSQGVREGLIVGFVHSMCQTAQSFCDSPGEKGGATPPALLLLLSRLCLDYETATISYILTLTDEQFLVQDQFPVTPVSTLCAEARETARRLLTHYVKVQGLVISQMLRKSVETRDWLSTLEPRNVRAVMKRVVEDTTAIDVQVGLLYEEGVRKAQSSDSSKRTFSVYSSSRQQGRYAPSYTPSAPMDTNLLSNIQKLFSERIDVFSPVEFNKVSVLTGIIKISLKTLLECVRLRTFGRFGLQQVQVDCHFLQLYLWRFVADEELVHLLLDEVVASAALRCPDPVPMEPSVVEVICERG [VPS51] | 0.0503 | 49.3 | 49.3 | -0.137 | 0.245 | 0.774
47 | MAAAAAAVGPGAGGAGSAVPGGAGPCATVSVFPGARLLTIGDANGEIQRHAEQQALRLEVRAGPDSAGIALYSHEDVCVFKCSVSRETECSRVGKQSFIITLGCNSVLIQFATPNDFCSFYNILKTCRGHTLERSVFSERTEESSAVQYFQFYGYLSQQQNMMQDYVRTGTYQRAILQNHTDFKDKIVLDVGCGSGILSFFAAQAGARKIYAVEASTMAQHAEVLVKSNNLTDRIVVIPGKVEEVSLPEQVDIIISEPMGYMLFNERMLESYLHAKKYLKPSGNMFPTIGDVHLAPFTDEQLYMEQFTKANFWYQPSFHGVDLSALRGAAVDEYFRQPVVDTFDIRILMAKSVKYTVNFLEAKEGDLHRIEIPFKFHMLHSGLVHGLAFWFDVAFIGSIMTVWLSTAPTEPLTHWYQVRCLFQSPLFAKAGDTLSGTCLLIANKRQSYDISIVAQVDQTGSKSSNLLDLKNPFFRYTGTTPSPPPGSHYTSPSENMWNTGSTYNLSSGMAVAGMPTAYDLSSVIASGSSVGHNNLIPLANTGIVNHTHSRMGSIMSTGIVQGSSGAQGSGGGSTSAHYAVNSQFTMGGPAISMASPMSIPTNTMHYGS [CARM1] | -0.0215 | 56 | 56.3 | -0.216 | -1.1 | -1.42
